Experimental data published in publication PMC10786891, “Massively parallel profiling of RNA-targeting CRISPR-Cas13d”.
Positions count from the first letter of the chain named. Names may count otherwise.

T1: EsCas13d, nuclease-dead (Eubacterium siraeum, UniProt B0MS50, R295A;H300A;R849A;H854A)
T1 sequence: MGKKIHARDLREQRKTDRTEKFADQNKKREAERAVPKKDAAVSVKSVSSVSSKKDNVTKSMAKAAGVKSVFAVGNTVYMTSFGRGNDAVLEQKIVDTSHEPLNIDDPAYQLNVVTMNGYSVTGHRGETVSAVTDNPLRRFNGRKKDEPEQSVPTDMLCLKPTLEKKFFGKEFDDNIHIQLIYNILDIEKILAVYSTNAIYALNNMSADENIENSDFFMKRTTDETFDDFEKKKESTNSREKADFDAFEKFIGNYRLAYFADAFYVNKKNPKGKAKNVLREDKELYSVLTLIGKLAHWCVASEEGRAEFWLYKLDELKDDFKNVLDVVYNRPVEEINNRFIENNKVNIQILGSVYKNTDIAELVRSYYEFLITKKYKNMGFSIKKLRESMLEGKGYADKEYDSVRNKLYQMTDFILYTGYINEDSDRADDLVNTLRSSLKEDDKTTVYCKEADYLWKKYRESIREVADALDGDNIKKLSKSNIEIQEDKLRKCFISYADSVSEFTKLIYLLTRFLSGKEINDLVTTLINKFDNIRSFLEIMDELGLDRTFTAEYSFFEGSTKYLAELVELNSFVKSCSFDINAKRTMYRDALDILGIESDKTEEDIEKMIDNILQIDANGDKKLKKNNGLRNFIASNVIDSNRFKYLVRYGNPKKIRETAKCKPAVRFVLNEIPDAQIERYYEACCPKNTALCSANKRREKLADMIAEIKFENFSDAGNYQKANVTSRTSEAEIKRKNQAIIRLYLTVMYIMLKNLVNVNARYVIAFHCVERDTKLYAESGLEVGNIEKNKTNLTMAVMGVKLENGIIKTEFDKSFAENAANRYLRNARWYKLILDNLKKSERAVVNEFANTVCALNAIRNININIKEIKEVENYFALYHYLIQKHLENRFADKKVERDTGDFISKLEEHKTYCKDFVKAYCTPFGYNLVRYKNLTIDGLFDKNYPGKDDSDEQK

B1: target 1 insA 3' of 22,insC 3' of 18 (mixed)
RNA 1: CACCCGUGCAAAAAUGCAGGGGUCUAAAACUGAGCGGAUAACCUCUCUAUGG
RNA 2: GGGAAUGGAUCCACAUCUACGAAUUCGUACACAUACGAGAGGUUAUCCGCUCACCGAGAUCGGAAGAGCACACGU
B2: target 1 C7U (mixed)
RNA 1: B1 RNA 1
RNA 2: GGGAAUGGAUCCACAUCUACGAAUUCGUACCAUAGAGAGGUUAUUCGCUCACCGAGAUCGGAAGAGCACACGU
B3: target 1 C4A,G12U (mixed)
RNA 1: B1 RNA 1
RNA 2: B2 RNA 2 with G40U, U45C, C48A
B4: target 1 insC 3' of 17,insU 3' of 6 (mixed)
RNA 1: B1 RNA 1
RNA 2: GGGAAUGGAUCCACAUCUACGAAUUCGUACCAUAGCAGAGGUUAUCCUGCUCACCGAGAUCGGAAGAGCACACGU
B5: target 1 insA 3' of 21,insA 3' of 5 (mixed)
RNA 1: B1 RNA 1
RNA 2: B4 RNA 2 with U33A, A34U, G35A, C36G, U48G, G49A
B6: target 1 C2U,G17U (mixed)
RNA 1: B1 RNA 1
RNA 2: B2 RNA 2 with G35U, U45C, C50U
B7: target 1 insG 3' of 21,insA 3' of 10 (mixed)
RNA 1: B1 RNA 1
RNA 2: B4 RNA 2 with A32G, U33A, A34U, G35A, C36G, U45A, C46U, U48C
B8: target 1 G15C,G17A (mixed)
RNA 1: B1 RNA 1
RNA 2: B2 RNA 2 with G35A, G37C, U45C
B9: target 1 insU 3' of 13,insU 3' of 1 (mixed)
RNA 1: B1 RNA 1
RNA 2: GGGAAUGGAUCCACAUCUACGAAUUCGUACCAUAGAGAGUGUUAUCCGCUCAUCCGAGAUCGGAAGAGCACACGU
B10: target 1 insA 3' of 5,insG 3' of 4 (mixed)
RNA 1: B1 RNA 1
RNA 2: GGGAAUGGAUCCACAUCUACGAAUUCGUACCAUAGAGAGGUUAUCCGACGUCACCGAGAUCGGAAGAGCACACGU
B11: target 1 insA 3' of 13,insG 3' of 8 (mixed)
RNA 1: B1 RNA 1
RNA 2: B4 RNA 2 with C36A, A37G, G38A, A39G, G40A, C46G, U48C
B12: target 1 C4G,G12A (mixed)
RNA 1: B1 RNA 1
RNA 2: B2 RNA 2 with G40A, U45C, C48G
B13: target 1 C2U,C6A (mixed)
RNA 1: B1 RNA 1
RNA 2: B2 RNA 2 with U45C, C46A, C50U
B14: target 1 insG 3' of 22,insA 3' of 21 (mixed)
RNA 1: B1 RNA 1
RNA 2: B1 RNA 2 with A31G, U34A, A35U, C36A
B15: target 1 G13A,A14G (mixed)
RNA 1: B1 RNA 1
RNA 2: B2 RNA 2 with A38G, G39A, U45C
B16: target 1 insC 3' of 11,insC 3' of 10 (mixed)
RNA 1: B1 RNA 1
RNA 2: B10 RNA 2 with U42C, A43U, U44C, C45A, C46U, G47C, A48C, C49G, G50C
B17: target 1 complement block 1-8 (mixed)
RNA 1: B1 RNA 1
RNA 2: B2 RNA 2 with U44A, U45G, C46G, G47C, C48G, U49A, C50G, A51U
B18: target 1 insA 3' of 12,insU 3' of 2 (mixed)
RNA 1: B1 RNA 1
RNA 2: B9 RNA 2 with U40G, G41A, A52U, U53A
B19: target 1 G13C,C21U (mixed)
RNA 1: B1 RNA 1
RNA 2: B2 RNA 2 with C31U, G39C, U45C
B20: target 1 insG 3' of 16,insC 3' of 12 (mixed)
RNA 1: B1 RNA 1
RNA 2: B4 RNA 2 with C36A, A37G, U42C, A44U, U45A, C46U, U48C
B21: target 1 insC 3' of 17,insC 3' of 11 (mixed)
RNA 1: B1 RNA 1
RNA 2: B4 RNA 2 with U43C, A44U, U45A, C46U, U48C
B22: target 1 A9U,U19C (mixed)
RNA 1: B1 RNA 1
RNA 2: B2 RNA 2 with U33C, A43U, U45C
B23: target 1 insC 3' of 22,insU 3' of 15 (mixed)
RNA 1: B1 RNA 1
RNA 2: B1 RNA 2 with A31C, C36G, G37A, A38G, G39U
B24: target 1 insA 3' of 19,insA 3' of 17 (mixed)
RNA 1: B1 RNA 1
RNA 2: B1 RNA 2 with A31C, C32A, A33U, U34A, C36G, G37A
B25: target 1 insU 3' of 21,insU 3' of 4 (mixed)
RNA 1: B1 RNA 1
RNA 2: B4 RNA 2 with A32U, U33A, A34U, G35A, C36G, U48G, G49C, C50U
B26: target 1 insU 3' of 9,insG 3' of 7 (mixed)
RNA 1: B1 RNA 1
RNA 2: B10 RNA 2 with C45U, A48C, C49G, G50C
B27: target 1 G15U,A18U (mixed)
RNA 1: B1 RNA 1
RNA 2: B2 RNA 2 with A34U, G37U, U45C
B28: target 1 insU 3' of 21,insA 3' of 15 (mixed)
RNA 1: B1 RNA 1
RNA 2: B1 RNA 2 with A31C, C32U, C36G, G37A, A38G, G39A
B29: target 1 insA 3' of 22,insU 3' of 7 (mixed)
RNA 1: B1 RNA 1
RNA 2: B4 RNA 2 with C31A, A32C, U33A, A34U, G35A, C36G, C47U, U48C
B30: target 1 insA 3' of 17,insA 3' of 8 (mixed)
RNA 1: B1 RNA 1
RNA 2: B4 RNA 2 with C36A, C46A, U48C
B31: target 1 C2A,C21A (mixed)
RNA 1: B1 RNA 1
RNA 2: B2 RNA 2 with C31A, U45C, C50A
B32: target 1 insU 3' of 12,insA 3' of 8 (mixed)
RNA 1: B1 RNA 1
RNA 2: B4 RNA 2 with C36A, A37G, G38A, A39G, G41U, C46A, U48C
B33: target 1 insU 3' of 17,insG 3' of 4 (mixed)
RNA 1: B1 RNA 1
RNA 2: B4 RNA 2 with C36U, U48G, G49C, C50G
B34: target 1 G13A,C21U (mixed)
RNA 1: B1 RNA 1
RNA 2: B2 RNA 2 with C31U, G39A, U45C

Target: T1, EsCas13d, nuclease-dead
Assay: crRNA (strand 1, pre-loaded); Mg2+; 40 mM Tris-HCl pH 7.5, 150 mM NaCl, 6 mM MgCl2, 1 mM DTT, 0.1% Tween-20, 0.2 mg/ml BSA; 25 C; 10 min per concentration, then washed
Settings: tags: His6-TwinStrep-SUMO cleaved; N-terminal SNAP kept (SNAP-Surface 488); label: 3' end held by stalled T7 RNA polymerase

Binder | Kd
B1 | 47 ± 8 nM
B2 | 7.5 ± 0.4 nM
B3 | 8.5 ± 1.3 nM
B4 | 64 ± 8 nM
B5 | 14.3 ± 0.9 nM
B6 | 20.5 ± 2.4 nM
B7 | 84 ± 24 nM
B8 | 90 ± 40 nM
B9 | 14.8 ± 1.7 nM
B10 | 6.6 ± 0.6 nM
B11 | 5.4 ± 0.5 nM
B12 | 3.39 ± 0.29 nM
B13 | 6 ± 0.4 nM
B14 | 27.4 ± 2.6 nM
B15 | 17.2 ± 1.6 nM
B16 | 29 ± 4 nM
B17 | 11.4 ± 0.4 nM

Binder | Kd
B18 | 40 ± 5 nM
B19 | 5.6 ± 0.7 nM
B20 | 47 ± 13 nM
B21 | 80 ± 26 nM
B22 | 26.3 ± 2.9 nM
B23 | 29 ± 10 nM
B24 | 37 ± 5 nM
B25 | 21.8 ± 1 nM
B26 | 10.6 ± 0.5 nM
B27 | 70 ± 13 nM
B28 | 18.5 ± 1.7 nM
B29 | 15.3 ± 0.7 nM
B30 | 16.1 ± 1.2 nM
B31 | 38 ± 6 nM
B32 | 12.3 ± 0.7 nM
B33 | 14.5 ± 1.3 nM
B34 | 7.8 ± 0.7 nM
